1 protein from patent US20060052292A1 (MAXYGEN APS MAXYGEN, published 2006) can be followed below.

The series deals with the molecule itself. As to the kind of experiment: native Tris-Glycine gel, self-association (homotrimer) of apM1(82-244). The method, then: After storage at −20° C. for several weeks the material was verified to have a heterogeneous appearance on a coomassie stained Novex 8-16% Tris-Glycine gel (Invitrogen; Cat. No. EC60452) run under native conditions (FIG. 4, lane 1). […] (In FIG. 4, M is SeeBlue Plus2).

B1: apM1(82-244), human adiponectin fragment expressed in CHO K1 cells (other)
chain: ETGVPGAEGPRGFPGIQGRKGEPGEGAYVYRSAFSVGLETYVTIPNMPIRFTKIFYNQQNHYDGSTGKFHCNIPGLYYFAYHITVYMKDVKVSLFKKDKAMLFTYDQYQENNVDQASGSVLLHLEVGDQVWLQVYGEGERNGLYADNDNDSTFTGFLLYHDTN
modifications: partial hydroxy-Pro at 86, 95 and 104; partial glyco-hydroxy-Lys at 101 (about 60%)
notes: Forms a calcium-stabilised homotrimer on native gels; On the Western blot the denatured monomer is detected
Turning to B1, the binding result is “binds”.
